Data on 5 molecules can be found in patent US20250034275A1 (CHIA TAI TIANQING PHARMACEUTICAL GROUP, published 2025).

Assay [1] concerns the target T1, human Trop-2 (on the surface of human cell lines) (human, UniProt P09758 27-323).
T1 construct: Endogenous Trop-2 on NCI-H322, Capan-1, PC-3, HUVEC, OVCAR-3, HCC38 and HCC1806 cells; also called TACSTD2
T1 sequence: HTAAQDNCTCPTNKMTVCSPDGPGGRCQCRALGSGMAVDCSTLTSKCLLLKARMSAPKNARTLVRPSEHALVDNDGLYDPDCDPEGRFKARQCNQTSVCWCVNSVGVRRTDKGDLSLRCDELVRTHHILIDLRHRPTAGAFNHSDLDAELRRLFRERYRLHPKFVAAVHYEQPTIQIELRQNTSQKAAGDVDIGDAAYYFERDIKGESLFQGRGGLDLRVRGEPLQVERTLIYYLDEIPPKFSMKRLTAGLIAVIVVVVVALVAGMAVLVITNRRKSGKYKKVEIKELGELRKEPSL
Put plainly: flow cytometry, HCC1806 cells. As to the method: (§1) Tumor cells expressing Trop-2 were prepared into a cell suspension (0.5-1×10⁶ cells/mL) using the FACS buffer (Miltenyi Biotec, 130-091-221), and the cell suspension was added to a 96-well V-bottom plate at 100 μL/well. After centrifugation and removal of the supernatant, the test antibodies diluted with the FACS buffer to different concentrations (0.006 nM-100 nM) were each added at 50 μL/well. The mixture was incubated in the dark in a 4° C. refrigerator for 1 h. The plate was then washed 3 times with the FACS buffer by centrifugation at 300 g, and Alexa Fluor 488 goat anti-human IgG (H+L) (Bio-legend, 409304, 1:500 dilution) at working concentration was added. The mixture was incubated in the dark in a 4° C. refrigerator for 40 min. The plate was then washed 3 times with the FACS buffer by centrifugation at 300 g, the geometric mean fluorescence intensity (MFI) was measured on a Sartorius iQue3 flow cytometer, and the binding EC₅₀ values of the antibodies for tumor cells with different Trop-2 expression levels were calculated
Background: Flow cytometry measures light scatter and fluorescence of single cells or particles in a stream.

Assay [2] concerns the target T2, human Trop-2-His (human, UniProt P09758 27-274, limits assumed).
T2 construct: by analogy with the macaque construct it is probably the extracellular domain with a His tag; also called Trop-2-His protein
T2 sequence: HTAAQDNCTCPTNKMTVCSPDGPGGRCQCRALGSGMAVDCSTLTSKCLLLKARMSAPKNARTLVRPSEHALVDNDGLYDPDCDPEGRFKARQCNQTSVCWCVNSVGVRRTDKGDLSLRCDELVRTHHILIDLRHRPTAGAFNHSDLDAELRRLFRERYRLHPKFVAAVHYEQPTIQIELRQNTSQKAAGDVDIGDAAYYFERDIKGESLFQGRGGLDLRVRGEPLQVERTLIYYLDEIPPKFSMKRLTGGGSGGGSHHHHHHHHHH
The assay can be described thus: ELISA, plate-coated human Trop-2-His. As to the method: (§2) After the liquid was discarded, 2% BSA (SIGMA, B2064-100G) diluted with PBS was added at 300 μL/well for blocking, and the mixture was incubated at 37° C. for 2 h. After the blocking was completed, the blocking buffer was discarded, the plate was washed 3 times with PBST buffer (pH 7.4 PBS containing 0.1% tween-20), the antibody solution diluted in a gradient was added at 100 μL/well, and the mixture was incubated at 37° C. for 1 h. After the incubation was completed, the plate was washed 3 times with PBST, the goat anti-human IgG (H+L) (JacksonImmunoResearch, 109-035-098, 1:5000 dilution) was added at 100 μL/well, and the mixture was incubated at 37° C. for 1 h. After the plate was washed 3 times with PBST, a TMB chromogenic substrate (TIANGEN, PA107-01) was added at 100 μL/well. The mixture was incubated at room temperature for 10-15 min, and then 1 M H₂SO₄ was added at 50 μL/well to terminate the reaction. The absorbance values at 450 nm were taken using a microplate reader. The binding curves of antibodies for antigen were fitted using software, and the EC₅₀ values were calculated.
In general terms: ELISA stands for enzyme-linked immunosorbent assay.

Assay [3] concerns the target T1, human Trop-2 (on the surface of human …). The assay can be described thus: cell-based or functional assay.
For another assay, the target named is T3, Macaque Trop-2-His (macaque, UniProt P09758 27-274 (human entry)).
T3 construct: Extracellular domain of macaque Trop-2 recombinantly linked to His; also called monkey Trop-2-His protein; monkey Trop-2
T3 chain: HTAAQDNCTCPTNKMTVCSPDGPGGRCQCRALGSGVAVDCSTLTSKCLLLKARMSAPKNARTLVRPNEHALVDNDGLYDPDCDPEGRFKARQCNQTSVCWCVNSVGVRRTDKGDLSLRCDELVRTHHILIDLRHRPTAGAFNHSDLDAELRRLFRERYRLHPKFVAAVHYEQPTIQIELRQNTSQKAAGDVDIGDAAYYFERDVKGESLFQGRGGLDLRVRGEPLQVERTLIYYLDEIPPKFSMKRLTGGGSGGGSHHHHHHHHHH
Put plainly: ELISA, plate-coated macaque Trop-2-His. As to the method:
as §2, with “times with the PBST buffer” for “times with PBST buffer”

For assay [4], the target named is T2, human Trop-2-His. Put plainly: SPR (Biacore 8K), antibody captured, Trop-2-His as analyte. From the text: The affinity of antibodies for human Trop-2-His was detected in the form of antibody capturing. The antibody was affinity-captured by a CM5 (Cat. #29149603, GE) biosensor chip conjugated with an anti-human IgG antibody (from human antibody capture kit, Cat. #29234600, GE), then the antigen human Trop-2-His flowed on the surface of the chip, and a Biacore 8K instrument was used for detecting reaction signals in real time to obtain association and dissociation curves. After dissociation was completed for each assay cycle, the chip was washed clean and regenerated with a regeneration buffer, 3M MgCl₂ (from human antibody capture kit, Cat. #29234600, GE). The association and dissociation curves were collected by Biacore 8K Control Software 3.0 in real time, and the data were analyzed by Biacore Insight Evaluation Software 3.0. The data were fitted using a Langmuir 1:1 model after double subtraction (namely, in each cycle, the contrast channel signal was subtracted from the experimental channel signal, and the sample signal was subtracted from the blank signal), and the association rate constant Ka, the dissociation rate constant Kd, and the equilibrium constant KD were calculated.
For orientation: SPR reads the build-up and loss of mass on a sensor chip optically.

Assay [5] addresses T1, human Trop-2 (on the surface of human …). The assay can be described thus: flow cytometry, HCC38 cells. As for the experimental part:
as §1

Assay [6] shares this target. The assay can be described thus: cell-based or functional assay. This is another data set of the same source.
Assay [7] has the same target. The assay can be described thus: flow cytometry, OVCAR-3 cells. As to the method: as §1

B1: hz-Ab2-1.3 (antibody, human IgG1, kappa, V domains shown)
VH: QVQLQESGPGLVKPSETLSLTCTVSGFSLTYYGIDWIRQPPGKGLEWIGVIWGSGNTKYNSALKSRVTISKDNSKSQFSLKLSSVTAADTAVYYCARFYEGFAYWGQGTLVTVSS
VL: DIQMTQSPSSLSASVGDRVTITCKASQDINSYLSWFQQKPGKAPKTLIYRANRLVEGVPSRFSGSGSGQDYTLTISSLQPEDFATYYCLQYDEFPLTFGQGTKVEIKR
notes: Humanized antibody
As for B1, the EC50 (as a rule, the concentration at which the effect is half-maximal) in assay [1] came out at 1.22 nM. This molecule came in with an EC50 with human Trop-2-His [2] of 0.081 nM. Moreover, in assay [3], the “ADCC reporter (Jurkat-CD16a v158-NFAT-luciferase), target cell H322, EC50” value (“ADCC reporter … target cell H322, EC50” for short) is 0.17 nM and the “ADCC reporter (Jurkat-CD16a v158-NFAT-luciferase), target cell HCC1806, EC50” value (“ADCC reporter … target cell HCC1806, EC50” for short) came out at 0.33 nM. This molecule also registered an EC50 with Macaque Trop-2-His of 0.068 nM. Further, in the assay with human Trop-2-His [4], binding was put at a Kd of 16.5 nM; the koff (in general, a measure of how fast the partners let go of each other) was 0.0165 s⁻¹; the kon (in general, the rate constant with which the complex forms) is 1e+06 M⁻¹ s⁻¹. This molecule returned an EC50 in assay [5] of 0.65 nM. In assay [6], the “ADCC, PBMC killing (LDH), H322, EC50” value turned out to be 0.02 nM; the “ADCC, PBMC killing (LDH), H322, Maximum killing (%)” value (“ADCC … H322, Maximum killing (%)” below) amounted to 48.1%; the “ADCC, PBMC killing (LDH), HCC1806, EC50” value was 0.06 nM; the “ADCC, PBMC killing (LDH), HCC1806, Maximum killing (%)” value (from here on “ADCC … HCC1806, Maximum killing (%)”) was determined as 37%.

B2: hz-Ab2-1.4 (antibody, human IgG1, kappa, V domains shown)
VH: QVQLQESGPGLVKPSETLSLTCTVSGFSLTYYGIDWIRQPPGKGLEWIGVIWGSGNTKYNSALKSRVTISKDNSKSQVYLKLSSVTAADTAVYYCARFYEGFAYWGQGTLVTVSS
VL: DIQMTQSPSSLSASVGDRVTITCKASQDINSYLSWFQQKPGKAPKTLIYRANRLVEGVPSRFSGSGSGQDYTLTISSLQPEDFATYYCLQYDEFPLTFGQGTKVEIKR
notes: Humanized antibody
Turning to B2, the midpoint of the response in assay [1], the EC50, lay at 1.07 nM. The molecule further came in with an EC50 with human Trop-2-His [2] of 0.068 nM. Moreover, in assay [3], the “ADCC reporter … target cell H322, EC50” value stood at 0.34 nM and the “ADCC reporter … target cell HCC1806, EC50” value was 0.39 nM. The EC50 in the assay with Macaque Trop-2-His was determined as 0.053 nM. In addition, in the assay with human Trop-2-His [4], binding was put at a Kd of 2.32 nM, the koff turned out to be 0.00284 s⁻¹ and the kon is 1.22e+06 M⁻¹ s⁻¹. The same molecule registered a 50% effective concentration (EC50) in assay [5] of 1.2 nM. Further, in assay [6], the “ADCC, PBMC killing (LDH), H322, EC50” value was found to be 0.01 nM; the “ADCC … H322, Maximum killing (%)” value stood at 48.7%; the “ADCC, PBMC killing (LDH), HCC1806, EC50” value was 0.02 nM; the “ADCC … HCC1806, Maximum killing (%)” value was found to be 34.8%.

B3: hz-Ab2-2.4 (antibody, human IgG1, kappa, V domains shown)
VH: QVQLQESGPGLVKPSETLSLTCTVSGFSLTYYGIDWIRQPPGKGLEWIGVIWGSGNTKYNSALKSRVTISKDNSKSQVYLKLSSVTAADTAVYYCARFYEGFAYWGQGTLVTVSS
VL: DIQMTQSPSSLSASVGDRVTITCRASQDINSYLSWFQQKPGKAPKTLIYRANRLVEGVPSRFSGSGSGQDFTLTISSLQPEDFATYYCLQYDEYPLTFGQGTKVEIKR
notes: Humanized antibody
In assay [1], B3 gave a half-maximal effective concentration (EC50) of 1.23 nM. The molecule also gave an EC50 with human Trop-2-His [2] of 0.1 nM. Besides, in assay [3], the “ADCC reporter … target cell H322, EC50” value came to 0.66 nM and the “ADCC reporter … target cell HCC1806, EC50” value was 1.51 nM. In the assay with Macaque Trop-2-His, this molecule gave a 50% effective concentration (EC50) of 0.07 nM. For the same molecule, in the assay with human Trop-2-His [4], the equilibrium dissociation constant (Kd) – broadly, the constant that tells how readily two partners part at equilibrium – was 11.6 nM; the koff was 0.00483 s⁻¹; the kon worked out at 415000 M⁻¹ s⁻¹. The molecule further showed an EC50 in assay [5] of 0.45 nM. Further, in assay [6], the “ADCC, PBMC killing (LDH), H322, EC50” value worked out at 0.07 nM; the “ADCC … H322, Maximum killing (%)” value is 46.7%; the “ADCC, PBMC killing (LDH), HCC1806, EC50” value came to 0.15 nM; the “ADCC … HCC1806, Maximum killing (%)” value was determined as 33.3%.

B4: hz-Ab21-1.1 (antibody, human IgG1, kappa, V domains shown)
VH: EVQLVESGGGLVKPGGSLRLSCAASGFTLRNYGVHWVRQAPGKGLEWVGVIWSSGTTDYAAPVKGRFTISKDNSKNTLYLQMNSLKTEDTAVYYCTRDGDYDYYTMDYWGQGTLVTVSS
VL: EIVLTQSPATLSLSPGERATLSCRASKSVSTSAYSYIHWYQQKPGQAPRLLIYLTSNLESGIPARFSGSGSGTDFTLTISSLEPEDFAVYYCQHSRELPYTFGQGTKVEIKR
notes: Humanized antibody
With B4, the concentration giving a half-maximal response (EC50) is 0.64 nM in assay [1]; 0.162 nM in the assay with human Trop-2-His [2]; 0.098 nM with Macaque Trop-2-His; 0.62 nM in assay [7]; 0.55 nM in assay [5]. The dissociation constant (Kd) with human Trop-2-His [4] turned out to be 1.2 nM. For the same molecule, in the assay with human Trop-2-His [4], the off-rate (koff) was found to be 0.000514 s⁻¹. The on-rate (kon) with human Trop-2-His [4] amounted to 429000 M⁻¹ s⁻¹.

B5: hz-Ab21-1.2 (antibody, human IgG1, kappa, V domains shown)
VH: EVQLVESGGGLVKPGGSLRLSCAASGFTLRNYGVHWVRQAPGKGLEWVGVIWSSGTTDYNAAFISRFTISKDNSKNTLYLQMNSLKTEDTAVYYCTRDGDYDYYTMDYWGQGTLVTVSS
VL: EIVLTQSPATLSLSPGERATLSCRASKSVSTSAYSYIHWYQQKPGQAPRLLIYLTSNLESGIPARFSGSGSGTDFTLTISSLEPEDFAVYYCQHSRELPYTFGQGTKVEIKR
notes: Humanized antibody
Consider B5, for which the EC50 stood at 1.23 nM in assay [1]; 0.248 nM with human Trop-2-His [2]; 0.086 nM in the assay with Macaque Trop-2-His; 0.67 nM in assay [7]; 0.66 nM in assay [5]. Further, the affinity in the assay with human Trop-2-His [4], expressed as Kd, was 0.973 nM. The molecule also showed a koff with human Trop-2-His [4] of 0.000438 s⁻¹. Further, the kon with human Trop-2-His [4] came to 450000 M⁻¹ s⁻¹.
